# Measured values as given in patent US20110124571A1 (INSTITUT PASTEUR, published 2011).
# Biological target: Recombinant human NEP (neutral endopeptidase, EC 3.4.24.11), devoid of its N-terminal cytosol and … (human, UniProt P08473 52-750)
# Experiment: cell-based or functional assay
# Sequence of Recombinant human NEP (neutral endopeptidase, EC 3.4.24.11), devoid of its N-terminal cytosol and … (P08473 52-750): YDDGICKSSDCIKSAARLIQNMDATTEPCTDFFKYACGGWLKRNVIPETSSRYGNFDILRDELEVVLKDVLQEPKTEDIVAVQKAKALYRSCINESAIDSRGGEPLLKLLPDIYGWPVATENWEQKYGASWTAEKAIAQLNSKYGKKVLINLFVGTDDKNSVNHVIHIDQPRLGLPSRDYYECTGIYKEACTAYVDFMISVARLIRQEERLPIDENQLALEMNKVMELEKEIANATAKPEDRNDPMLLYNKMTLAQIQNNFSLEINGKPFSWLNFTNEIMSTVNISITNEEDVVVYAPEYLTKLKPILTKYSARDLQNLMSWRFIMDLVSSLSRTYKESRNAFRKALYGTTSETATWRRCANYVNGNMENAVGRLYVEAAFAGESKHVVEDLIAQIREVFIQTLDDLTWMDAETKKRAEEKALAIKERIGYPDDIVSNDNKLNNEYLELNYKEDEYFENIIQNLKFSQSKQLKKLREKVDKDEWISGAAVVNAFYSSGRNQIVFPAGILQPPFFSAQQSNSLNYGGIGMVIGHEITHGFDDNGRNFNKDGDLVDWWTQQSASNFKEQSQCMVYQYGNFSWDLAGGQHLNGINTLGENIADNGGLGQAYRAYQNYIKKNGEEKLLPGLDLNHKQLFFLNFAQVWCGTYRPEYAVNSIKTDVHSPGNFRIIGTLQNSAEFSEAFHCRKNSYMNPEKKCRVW
binder,measurement,value
CQRFSR (spacer -HN-(CH2)6-CO- (amino-hexanoic-acid) between Cys and Gln) [NH2-C-(C6-polyethylene)QRFSR-COOH],"IC50, inhibition of Abz-dR-G-L-EDDnp cleavage by rhNEP (endopeptidase activity)",40 µM
